Data reported in the array DNA melting data of Ke et al..

assay: melting temperature; melt of duplexes; conditions: sodium 0.0675 M; strand 1 µM

Row | Substance | Tm [°C]
1 | CGACGTGCTAAATGTGCTG+CAGCACATCCAGCACGTCG (((((((((..((((((((+))))))))..))))))))) | 50.8
2 | CGACGTGCTAAATGTGCTG+CAGCACATCCTGCACGTCG ((((((((...((((((((+))))))))...)))))))) | 49
3 | CGACGTGCTAAATGTGCTG+CAGCACATCGCGCACGTCG ((((((((...((((((((+))))))))...)))))))) | 47.5
4 | CGACGTGCTAAATGTGCTG+CAGCACATCGTGCACGTCG ((((((((...((((((((+))))))))...)))))))) | 44.7
5 | CGACGTGCTAAATGTGCTG+CAGCACATCTTGCACGTCG ((((((((.(.((((((((+)))))))).).)))))))) | 50.1
6 | CGACGTGCTAAATGTGCTG+CAGCACATGAGGCACGTCG ((((((((...((((((((+))))))))...)))))))) | 53.4
7 | CGACGTGCTAAATGTGCTG+CAGCACATGGAGCACGTCG (((((((((..((((((((+))))))))..))))))))) | 54.5
8 | CGACGTGCTAAATGTGCTG+CAGCACATGGGGCACGTCG ((((((((...((((((((+))))))))...)))))))) | 52.5
9 | CGACGTGCTAAATGTGCTG+CAGCACATTAAGCACGTCG (((((((((.(((((((((+))))))))).))))))))) | 55.8
10 | CGACGTGCTAAATGTGCTG+CAGCACATTACGCACGTCG ((((((((..(((((((((+)))))))))..)))))))) | 51.4
11 | CGACGTGCTAAATGTGCTG+CAGCACATTCCGCACGTCG ((((((((..(((((((((+)))))))))..)))))))) | 50.1
12 | CGACGTGCTAAATGTGCTG+CAGCACATTGAGCACGTCG (((((((((.(((((((((+))))))))).))))))))) | 57.2
13 | CGACGTGCTAAATGTGCTG+CAGCACATTGCGCACGTCG ((((((((..(((((((((+)))))))))..)))))))) | 51.2
14 | CGACGTGCTAAATGTGCTG+CAGCACATTTAGCACGTCG (((((((((((((((((((+))))))))))))))))))) | 61.6
15 | CGACGTGCTAAATGTGCTG+CAGCACATTTCGCACGTCG ((((((((.((((((((((+)))))))))).)))))))) | 55.3
16 | CGACGTGCTACATGTGCTG+CAGCACATACAGCACGTCG (((((((((..((((((((+))))))))..))))))))) | 51.5
17 | CGACGTGCTACATGTGCTG+CAGCACATACGGCACGTCG ((((((((...((((((((+))))))))...)))))))) | 48.8
18 | CGACGTGCTACATGTGCTG+CAGCACATAGGGCACGTCG ((((((((...((((((((+))))))))...)))))))) | 50.8
19 | CGACGTGCTACATGTGCTG+CAGCACATAGTGCACGTCG ((((((((...((((((((+))))))))...)))))))) | 48.1
20 | CGACGTGCTACATGTGCTG+CAGCACATCAAGCACGTCG (((((((((..((((((((+))))))))..))))))))) | 50.6
21 | CGACGTGCTACATGTGCTG+CAGCACATCCGGCACGTCG ((((((((...((((((((+))))))))...)))))))) | 48.7
22 | CGACGTGCTACATGTGCTG+CAGCACATCGCGCACGTCG ((((((((...((((((((+))))))))...)))))))) | 46.9
23 | CGACGTGCTACATGTGCTG+CAGCACATCTCGCACGTCG ((((((((.(.((((((((+)))))))).).)))))))) | 47.2
24 | CGACGTGCTACATGTGCTG+CAGCACATCTGGCACGTCG ((((((((.(.((((((((+)))))))).).)))))))) | 49.9

Row | Substance | Tm [°C]
25 | CGACGTGCTACATGTGCTG+CAGCACATGACGCACGTCG ((((((((..(((((((((+)))))))))..)))))))) | 50.8
26 | CGACGTGCTACATGTGCTG+CAGCACATGAGGCACGTCG ((((((((..(((((((((+)))))))))..)))))))) | 55.8
27 | CGACGTGCTACATGTGCTG+CAGCACATGCCGCACGTCG ((((((((..(((((((((+)))))))))..)))))))) | 52.3
28 | CGACGTGCTACATGTGCTG+CAGCACATGGAGCACGTCG (((((((((.(((((((((+))))))))).))))))))) | 61.7
29 | CGACGTGCTACATGTGCTG+CAGCACATGGCGCACGTCG ((((((((..(((((((((+)))))))))..)))))))) | 54.7
30 | CGACGTGCTACATGTGCTG+CAGCACATGTCGCACGTCG ((((((((.((((((((((+)))))))))).)))))))) | 57.2
31 | CGACGTGCTACATGTGCTG+CAGCACATTAGGCACGTCG ((((((((...((((((((+))))))))...)))))))) | 50.5
32 | CGACGTGCTACATGTGCTG+CAGCACATTCCGCACGTCG ((((((((...((((((((+))))))))...)))))))) | 47.2
33 | CGACGTGCTACATGTGCTG+CAGCACATTCGGCACGTCG ((((((((...((((((((+))))))))...)))))))) | 49.1
34 | CGACGTGCTACATGTGCTG+CAGCACATTTTGCACGTCG ((((((((.(.((((((((+)))))))).).)))))))) | 50.4
35 | CGACGTGCTAGATGTGCTG+CAGCACATACAGCACGTCG (((((((((..((((((((+))))))))..))))))))) | 53.2
36 | CGACGTGCTAGATGTGCTG+CAGCACATACGGCACGTCG ((((((((...((((((((+))))))))...)))))))) | 49.9
37 | CGACGTGCTAGATGTGCTG+CAGCACATACTGCACGTCG ((((((((...((((((((+))))))))...)))))))) | 50.9
38 | CGACGTGCTAGATGTGCTG+CAGCACATAGAGCACGTCG (((((((((..((((((((+))))))))..))))))))) | 53.8
39 | CGACGTGCTAGATGTGCTG+CAGCACATAGGGCACGTCG ((((((((...((((((((+))))))))...)))))))) | 51.5
40 | CGACGTGCTAGATGTGCTG+CAGCACATATCGCACGTCG ((((((((.(.((((((((+)))))))).).)))))))) | 51
41 | CGACGTGCTAGATGTGCTG+CAGCACATCAAGCACGTCG (((((((((.(((((((((+))))))))).))))))))) | 57.5
42 | CGACGTGCTAGATGTGCTG+CAGCACATCAGGCACGTCG ((((((((..(((((((((+)))))))))..)))))))) | 56.2
43 | CGACGTGCTAGATGTGCTG+CAGCACATCATGCACGTCG ((((((((..(((((((((+)))))))))..)))))))) | 55.6
44 | CGACGTGCTAGATGTGCTG+CAGCACATCGAGCACGTCG (((((((((.(((((((((+))))))))).))))))))) | 59.7
45 | CGACGTGCTAGATGTGCTG+CAGCACATGACGCACGTCG ((((((((...((((((((+))))))))...)))))))) | 48.1
46 | CGACGTGCTAGATGTGCTG+CAGCACATGGTGCACGTCG ((((((((...((((((((+))))))))...)))))))) | 46.9
47 | CGACGTGCTAGATGTGCTG+CAGCACATTAAGCACGTCG (((((((((..((((((((+))))))))..))))))))) | 53.3
48 | CGACGTGCTAGATGTGCTG+CAGCACATTAGGCACGTCG ((((((((...((((((((+))))))))...)))))))) | 52.2

Row | Substance | Tm [°C]
49 | CGACGTGCTAGATGTGCTG+CAGCACATTGAGCACGTCG (((((((((..((((((((+))))))))..))))))))) | 54
50 | CGACGTGCTAGATGTGCTG+CAGCACATTGCGCACGTCG ((((((((...((((((((+))))))))...)))))))) | 49.2
51 | CGACGTGCTAGATGTGCTG+CAGCACATTGTGCACGTCG ((((((((...((((((((+))))))))...)))))))) | 48.5
52 | CGACGTGCTAGATGTGCTG+CAGCACATTTAGCACGTCG ((((((((((.((((((((+)))))))).)))))))))) | 56.6
53 | CGACGTGCTAGATGTGCTG+CAGCACATTTCGCACGTCG ((((((((.(.((((((((+)))))))).).)))))))) | 50.1
54 | CGACGTGCTAGATGTGCTG+CAGCACATTTTGCACGTCG ((((((((.(.((((((((+)))))))).).)))))))) | 52
55 | CGACGTGCTATATGTGCTG+CAGCACATAAAGCACGTCG (((((((((.(((((((((+))))))))).))))))))) | 55.6
56 | CGACGTGCTATATGTGCTG+CAGCACATAACGCACGTCG ((((((((..(((((((((+)))))))))..)))))))) | 50.8
57 | CGACGTGCTATATGTGCTG+CAGCACATAATGCACGTCG ((((((((..(((((((((+)))))))))..)))))))) | 53
58 | CGACGTGCTATATGTGCTG+CAGCACATACCGCACGTCG ((((((((..(((((((((+)))))))))..)))))))) | 49.3
59 | CGACGTGCTATATGTGCTG+CAGCACATAGGGCACGTCG ((((((((..(((((((((+)))))))))..)))))))) | 53.2
60 | CGACGTGCTATATGTGCTG+CAGCACATAGTGCACGTCG ((((((((..(((((((((+)))))))))..)))))))) | 49
61 | CGACGTGCTATATGTGCTG+CAGCACATCACGCACGTCG ((((((((...((((((((+))))))))...)))))))) | 47.9
62 | CGACGTGCTATATGTGCTG+CAGCACATCCAGCACGTCG (((((((((..((((((((+))))))))..))))))))) | 50.2
63 | CGACGTGCTATATGTGCTG+CAGCACATCCCGCACGTCG ((((((((...((((((((+))))))))...)))))))) | 47.2
64 | CGACGTGCTATATGTGCTG+CAGCACATCGAGCACGTCG (((((((((..((((((((+))))))))..))))))))) | 51.5
65 | CGACGTGCTATATGTGCTG+CAGCACATCTCGCACGTCG ((((((((.(.((((((((+)))))))).).)))))))) | 48.3
66 | CGACGTGCTATATGTGCTG+CAGCACATGAAGCACGTCG (((((((((..((((((((+))))))))..))))))))) | 53.2
67 | CGACGTGCTATATGTGCTG+CAGCACATGACGCACGTCG ((((((((...((((((((+))))))))...)))))))) | 47.6
68 | CGACGTGCTATATGTGCTG+CAGCACATGATGCACGTCG ((((((((...((((((((+))))))))...)))))))) | 51.9
69 | CGACGTGCTATATGTGCTG+CAGCACATGCAGCACGTCG (((((((((..((((((((+))))))))..))))))))) | 52.5
70 | CGACGTGCTATATGTGCTG+CAGCACATGCTGCACGTCG ((((((((...((((((((+))))))))...)))))))) | 48.1
71 | CGACGTGCTATATGTGCTG+CAGCACATGGGGCACGTCG ((((((((...((((((((+))))))))...)))))))) | 51
72 | CGACGTGCTATATGTGCTG+CAGCACATGGTGCACGTCG ((((((((...((((((((+))))))))...)))))))) | 47.7
